The target in assay [1] is HLA-B*40:01. Nature of the assay: IEDB peptide-MHC binding, purified MHC/competitive/radioactivity; filed as Kd, often an IC50 or EC50 that approximates it; ≥ and ≤ were set here for values at or beyond the usual limits of such assays.
Assay [2] deals with HLA-B*44:02. The assay is described as above.
The target in assay [3] is HLA-B*44:03. The assay is described as above.
The target of assay [4] is HLA-A*02:01. The assay is described as follows: IEDB peptide-MHC binding, purified MHC/competitive/fluorescence; ≥ and ≤ were set here for values at or beyond the usual limits of such assays.
In assay [5] the target is HLA-A*24:02. Nature of the assay: IEDB peptide-MHC binding, purified MHC/competitive/radioactivity; filed as Kd, often an IC50 or EC50 that approximates it; ≥ and ≤ were set here for values at or beyond the usual limits of such assays.
Assay [6] deals with HLA-B*53:01. The assay is described as above.
In assay [7] the target is HLA-A*01:01. The assay is described as above.
Assay [8] has as its target HLA-A*26:01. Described as above.
Assay [9] concerns the target HLA-A*30:02. The description is as above.
The target of assay [10] is HLA-A*03:01. The description is as above. The following applies: source organism: Vaccinia virus WR.
Assay [11] deals with HLA-A*11:01. The description is as above. The following applies: source organism: Vaccinia virus WR.
The target in assay [12] is HLA-A*29:02. The description is as above. The settings on record: source organism: Vaccinia virus WR.
Assay [13] deals with HLA-A*31:01. The description is as above. The following applies: source organism: Vaccinia virus WR.
Assay [14] has as its target HLA-A*33:01. The description is as above. The following applies: source organism: Vaccinia virus WR.
For assay [15], the target named is HLA-A*68:01. Described as above. The settings on record: source organism: Vaccinia virus WR.
The target of assay [16] is HLA-A*02:01. Nature of the assay: IEDB peptide-MHC binding, purified MHC/direct/fluorescence; filed as Kd, often an IC50 or EC50 that approximates it; ≥ and ≤ were set here for values at or beyond the usual limits of such assays. The following applies: source organism: Vibrio parahaemolyticus.
The target of assay [17] is HLA-A*69:01. Described as above.
In assay [18] the target is HLA-B*40:01. The assay is described as above. The settings on record: source organism: Mycobacterium tuberculosis variant bovis.
The target in assay [19] is HLA-A*01:01. The assay is described as above. The following applies: source organism: Homo sapiens.
The target of assay [20] is HLA-A*03:01. The description is as above. The settings on record: source organism: Plum pox virus.
Assay [21] deals with HLA-A*31:01. The assay is described as above. The settings on record: source organism: Plum pox virus.
Assay [22] addresses HLA-B*07:02. Described as above. The settings on record: source organism: Homo sapiens.
[23] abbreviates: source organism: Dengue virus 3 Martinique/1243/1999.
[24] abbreviates: source organism: Dengue virus 3 Singapore/8120/1995.
Setting [25] is: source organism: Zaire ebolavirus.
[26] abbreviates: source organism: Dengue virus 1 Brazil/97-11/1997.
Where [27] appears, read: source organism: Dengue virus 1 Singapore/S275/1990.
[28] abbreviates: source organism: Sudan ebolavirus.
The mark [29] stands for this setting: source organism: Dengue virus 2 Jamaica/1409/1983.
The mark [30] stands for this setting: source organism: Dengue virus 4 Philippines/H241/1956.
[31] abbreviates: source organism: Mammarenavirus guanaritoense.
Setting [32] is: source organism: Mammarenavirus whitewaterense.

AEPDGPTPEL: the Kd (in general, the constant that tells how readily two partners part at equilibrium) in [1] (setting [23]) was 10.7 nM.
AETQNSSFII: the Kd in assay [1] (setting [23]) amounted to 23.1 nM; in [2] (setting [23]) it was 63.8 nM; in [3] (setting [23]), 34.7 nM.
As to ALFSSCPV, the IC50 (in general, the concentration needed to halve the response being measured) in assay [4] (source organism: Mus musculus) worked out at 291 nM.
On to AVVIVGLHGV, for which the IC50 in assay [4] (source organism: Human alphaherpesvirus 1 strain 17) was ≥ 50000 nM.
AYVVIGILTL: in [5] (setting [23]), the Kd stood at 938 nM.
As for EEEMFKKRNL, the results for the Kd in assay [1] (setting [23]), in [2] (setting [23]) and in [3] (setting [23]) were ≥ 64300 nM, 90 nM and 815 nM, respectively.
As for EEHSSTWHY, the Kd in assay [2] (setting [24]) is 17.6 nM; in [3] (setting [24]), 41 nM.
Take EELPETMETL: the Kd in [1] (setting [23]) came to 191 nM.
As for EGAFFLYDR, in [4] (setting [25]), the IC50 was ≥ 508000 nM.
With EPSKGWNDW, in assay [6] (setting [26]), the Kd was 1110 nM.
In the case of ESEMIIPKIY, the Kd in assay [7] (setting [27]) worked out at 6210 nM; in assay [8] (setting [27]) it was 19900 nM; in assay [9] (setting [27]) it was 11700 nM.
On to ESMASLKSLY, for which the Kd in assay [10] is 7.63 nM; in assay [11] it was 116 nM; in assay [12], ≥ 71400 nM; in assay [13] it was 3190 nM; in assay [14], 15900 nM; in [15], 4.63 nM.
Sequence FFLYDRLAS returned an IC50 in [4] (setting [28]) of 40000 nM.
FGVFTTNIW: in assay [6] (setting [29]), the dissociation constant (Kd) turned out to be 111 nM.
Turning to FQLAAPSGF, the Kd in [16] is 9000 nM; in assay [17] (source organism: Vibrio parahaemolyticus) it was ≥ 20000 nM.
GEPDARYEI showed a Kd in assay [18] of 70.2 nM.
In the case of GETAWDFGSV, in assay [1] (setting [30]), the Kd was 388 nM.
As to GEYRLRGEAR, the Kd in assay [1] (setting [29]) was 1900 nM.
For the sequence GMVPLHIPE, the IC50 in assay [4] (setting [28]) is ≥ 103000 nM.
For GSDGGLDDY, the Kd amounted to 58.1 nM in assay [19] and 1930 nM in assay [17] (source organism: Homo sapiens).
As to GTMHQEIFR, the Kd in assay [20] came out at 83.9 nM; in [21], 41.9 nM.
As for HEEPIPMSTY, the Kd stood at 397 nM in [2] (setting [29]) and 251 nM in [3] (setting [29]).
For the sequence HPGAGKTKRY, in assay [6] (setting [29]), the Kd is ≥ 20200 nM.
For the sequence IHLAIMAVF, the Kd in [5] (setting [30]) worked out at 71.9 nM.
As to IIVNNQESNK, the Kd in assay [10] was 1130 nM; in [11], 4400 nM; in assay [12] it was ≥ 68200 nM; in assay [13], ≥ 29900 nM; in assay [14], ≥ 36200 nM; in assay [15], 3230 nM.
On to IPYHIVNIV, for which the figures for the Kd in assay [17] (source organism: Homo sapiens) and in assay [22] were 1340 nM and 3460 nM, respectively.
As for KCDICTDEY, the Kd in [19] was determined as 806 nM.
For the sequence KERMVTFKV, the Kd in assay [1] (setting [30]) was 5760 nM.
With KRHSTKYHL, the results for the Kd in assay [5] (setting [31]), in [8] (setting [31]) and in assay [9] (setting [31]) were ≥ 60300 nM, ≥ 77900 nM and ≥ 33300 nM, respectively.
As to KYPNLNDLK, the Kd was ≥ 41000 nM in assay [7] (setting [32]), ≥ 77900 nM in assay [8] (setting [32]) and 9570 nM in assay [9] (setting [32]).
LETRAETWM: the Kd in assay [1] (setting [30]) came out at 261 nM.
LGLITNTIA yielded an IC50 in [4] (setting [25]) of 35300 nM.
Take LIGLTARATW: the Kd in [6] (setting [26]) came to 1810 nM.
As for LPLFIFSLKD, the Kd in assay [6] (setting [23]) was 2920 nM.

The values are drawn from the Immune Epitope Database (IEDB).
